Experiments:
[1] = molecular target: CT-MRAP2, C-terminal domain of MRAP2 fused to a poly-his tag (human) (UniProt Q96G30); assay: SDS-PAGE; purified His-tagged CT-MRAP2 resolved by SDS-PAGE under denaturing conditions, anti-His blot
[2] = molecular target: CT-MRAP2, C-terminal domain of MRAP2 fused to a poly-his tag (human) (UniProt Q96G30); assay: native gel or EMSA; blue native PAGE of 20 μg purified C-terminal MRAP2 domain, 3% to 16% Bis-Tris gel, 0 °C, anti-His blot; molecular weights only approximate

stoichiometry N [1]: 2 | stoichiometry N [2]: 2
Substance: CT-MRAP2, C-terminal domain of MRAP2 fused to a poly-his tag (from UniProt Q96G30 76-205) (domain or fragment)

— publication PMC8946000
